One molecule from patent US20250295802A1, “HER3 ANTIBODY-DRUG CONJUGATE AND USE THEREOF” (DUALITY BIOLOGICS (SUZHOU) CO., LTD., priority 2022, published 2025) can be followed below.

The target of experiment [1] is T1, HER3 (Homo sapiens, UniProt P21860).
T1 construct: human Fc (huFc)
Kind of experiment: ELISA binding affinity after repeated freeze-thaw. The note with it: 0 freeze-thaw cycles. The protocol: (§1) ELISA assay: human HER2-ex-huFc, human HER3-huFc, and human EGFR-his were diluted to 2 μg/mL and 50 μL/well in a 96-well plate and incubated at 4° C. overnight. The plate was washed with 0.5×PBST, then incubated with 100 μL of a blocking buffer (PBS+3% BSA) at 37° C. for 2 h, and washed with 0.5×PBST. The 3F8 antibody was diluted with the blocking buffer in a 1:3 serial gradient, added at 50 μL/well, incubated at 37° C. for 40-50 min, and then washed with 0.5×PBST. Goat anti-mouse IgG-HRP (Southern Biotech, 1030-05) was diluted at 1:20000 with the blocking buffer, added at 50 μL/well, incubated in the dark for 30 min, and then washed with 0.5×PBST. Prior to assay, 50 μL of luminol buffer A+B was added to each well in a 1:1 mix.
Antibody stability test: the purified antibody at 5 mg/mL was stored at 4° C. as regular practice, incubated at 40° C. for 7 days and 14 days for heat stability evaluation, transferred to a glycine solution at pH 3.5 for regeneration, and stored for 2, 4 and 6 h for acid stability evaluation, or subjected to repeated freeze-thaw treatments for 4 or 6 cycles for freeze-thaw stability evaluation. Aggregation was measured by SEC-HPLC, and binding affinity was determined by ELISA.
Three clones of hu3F8 were freeze-thawed for 3 or 5 cycles, and then subjected to ELISA to measure the binding affinities. The chimeric antibody was subjected to parallel assay.
Background: In an ELISA, binding on a coated surface is turned into a signal by an enzyme label.

The target in experiment [2] is T2, His-HER3 (Homo sapiens, UniProt P21860).
T2 construct: His
Kind of experiment: Binding kinetics by Biacore (SPR). The note with it: antibody as ligand, analyte His-HER3, Biacore T200. The protocol:
Affinity assay by surface plasmon resonance (SPR): antibody kinetics and affinity were determined using Biacore T200. Briefly, the recombinant human HER3 antibody was immobilized on a protein A chip (GE, Cat. 29-1275-5). The antigen concentration, from 50 nM to a final concentration of 0.78125 nM, was generated by 2-fold serial dilution, and affinity and kinetics were determined through the chip.
The binding affinity of humanized 3F8 (hu3F8) and chimeric 3F8. Binding kinetics of 3 humanized 3F8 clones and chimeric 3F8 were determined by Biacore. Three humanized 3F8 clones (clone 1, clone 2 and clone 3) had different heavy chains and one identical light chain. Clone 1, clone 2, and clone 3 corresponded to hu3F8-1, hu3F8-2, and hu3F8-3, respectively.
All data listed in Table 6 were processed using Biacore T200 evaluation software version 3.1.
A general note: In SPR one partner is held on a chip, and binding of the other changes the refractive index at the surface.

Experiment [3] has as its target T1, HER3. As to the kind of experiment: ELISA binding affinity after incubation at 40° C. (heat stress). The note with it: day 0. The protocol: as §1, with “Prior to assay, 50 μL of luminol buffer A+B was added to each well in a 1:1 mix.” left out
Antibody stability test: the purified antibody at 5 mg/mL was stored at 4° C. as regular practice, incubated at 40° C. for 7 days and 14 days for heat stability evaluation, transferred to a glycine solution at pH 3.5 for regeneration, and stored for 2, 4 and 6 h for acid stability evaluation, or subjected to repeated freeze-thaw treatments for 4 or 6 cycles for freeze-thaw stability evaluation. Aggregation was measured by SEC-HPLC, and binding affinity was determined by ELISA. […]
EC50 assay of the three clones of hu3F8 incubated at 40° C. for different times. The three humanized 3F8 antibody clones were incubated in normal saline at 40° C. for 7 or 14 days, and the binding affinities after heat stress test were determined by ELISA. […]

B1: Chimeric: murine-human chimeric 3F8 antibody with human IgG1 and Igκ constant regions (antibody, V domains shown)
VH: DVQLQESGPGLVKPSQSLSLTCSVTGYSITSAYYWNWIRQFPGDKLEWMGYISYDGRNNFNPSLKNRISITRDTSKNQFFLKLNSVTSGDTATYYCARDGDYDYFDYWGQGTTLTVSS
VL: DIQMTQTTSSLSASLGDRVTISCRASQDISNYLNWYQQKPDGTFKLLIYYTSILHSGVPSRFSGSGSGTDYSLTISNLEQEDIATYFCQQGDTLPPTFGAGTKLELK
With B1, the “EC50 after freeze-thaw stress” value in experiment [1] came to 0.04706 µg/mL. In addition, in experiment [2], the “ka” value turned out to be 628000 M⁻¹ s⁻¹ and the “kd” value amounted to 0.000391 s⁻¹. Moreover, the “EC50 after incubation at 40° C.” value in experiment [3] amounted to 0.04737 µg/mL.
